Consider four molecules from patent publication US20190322748A1 (Hoffmann-La Roche, published 2019).

Where “and” joins values, the source holds several entries; their conditions need not be identical. Equal entries are not always repeated. Where two headings read alike, the source gives them in different places.

Assay [1] addresses T1, full-length human PD1 on cells (CHO-K1 stably transfected with plasmid 15311_hPD1-fl_pUC_Neo) (human, UniProt Q15116 25-288). Put plainly: cell-based or functional assay.
The target in assay [2] is T1, full-length human PD1 on cells (CHO-K1 …). Put plainly: cell-based or functional assay. The source holds these as a separate data set.
Assay [3] shares this target. Put plainly: cell-based or functional assay. This is another data set of the same source.
The target is the same in assay [4]. Put plainly: cell-based or functional assay. This is another data set of the same source.
For assay [5], the target named is T2, biotinylated PD1-ECD-AviHis (human, UniProt Q15116 25-170, biotinylated, site not stated).
T2 construct: also called huPD1; hu PD1
Put plainly: ELISA on coated biotinylated PD1-ECD-AviHis.

The target of assay [6] is T2, biotinylated PD1-ECD-AviHis. Put plainly: ELISA on coated biotinylated PD1-ECD-AviHis. The source holds these as a separate data set. (In an ELISA, binding on a coated surface is turned into a signal by an enzyme label.)
The target in assay [7] is T3, biotinylated TIM3-ECD-AviHis (human, UniProt Q8TDQ0 22-202, biotinylated, site not stated).
T3 construct: also called huTIM3; Hu TIM3
Put plainly: ELISA on coated biotinylated TIM3-ECD-AviHis.

Assay [8] concerns the target T4, human PD1-ECD (human, UniProt Q15116 25-170).
T4 construct: SPR analyte; also called hu PD1-ECD
Put plainly: SPR Biacore T200, Ab captured on anti-human IgG, 25 C. Background: SPR reads the build-up and loss of mass on a sensor chip optically.

Assay [9] addresses T5, Tim3-CLIP (on transiently transfected HEK293 cells) (human, CLIP-tag labelled with Clip-Red).
T5 construct: The plasmid encodes residues 1-202 including the signal peptide; also called CLIP-tagged TIM3
Put plainly: cell-based TR-FRET on SNAP-tagged PD1 / CLIP-tagged TIM3 HEK293 cells, 1 h at 4 C; signal needs both receptors bound at once. A general note: Time-resolved FRET reads energy transfer from a long-lived donor to a nearby acceptor.

Assay [10] concerns the target T4, human PD1-ECD. Put plainly: SPR; row head 'Affinity KD 37°C [nM] *)', first of two values, footnote not explained; first of the two values in the cell; row head KD 37°C, footnote *) not given.
Assay [11] concerns the target T2, biotinylated PD1-ECD-AviHis. Put plainly: ligand replacing ELISA on coated PD1-ECD-AviHis; row head 'IC50 PD-L1, 2', competitor not told apart; blocking of ligand binding; head says 'PD-L1, 2', competitor not told apart.
The target of assay [12] is T4, human PD1-ECD. Put plainly: SPR; row head 'Affinity KD 37°C [nM] *)', second of two values (equals the 25 C value of Table 9); second of the two values in the cell; footnote *) not given, so the difference from the first value is not told.
Assay [13] deals with T4, human PD1-ECD. Put plainly: SPR Biacore T200, Ab captured on anti-human Fc IgG, hu PD1-ECD in solution, 25 C.
Assay [14] has as its target T6, monomeric human Tim3-ECD (human, UniProt Q8TDQ0 22-202).
T6 construct: SPR analyte; also called huTim3; hu Tim3-ECD
Put plainly: SPR Biacore T200, Ab captured on anti-human Fab IgG, hu Tim3-ECD in solution, 25 C.

In assay [15] the target is T7, PD1-SNAP (on transiently transfected HEK293 cells) (human, SNAP-tag labelled with SNAP-Lumi4-Tb).
T7 construct: also called SNAP-tagged PD1
Put plainly: cell-based TR-FRET on SNAP-tagged PD1 / CLIP-tagged TIM3 HEK293 cells, 1 h at 4 C; half-maximal FRET, i.e. simultaneous binding of both receptors, not of one arm alone.

For assay [16], the target named is T5, Tim3-CLIP (on transiently transfected …). Described as above.
The target in the next assay is T8, monomeric cyno Tim3-ECD (cynomolgus, UniProt A0A2K5U3G7 22-195).
T8 construct: extracellular domain; also called cyTim3; cynomolgus Tim3
T8 sequence: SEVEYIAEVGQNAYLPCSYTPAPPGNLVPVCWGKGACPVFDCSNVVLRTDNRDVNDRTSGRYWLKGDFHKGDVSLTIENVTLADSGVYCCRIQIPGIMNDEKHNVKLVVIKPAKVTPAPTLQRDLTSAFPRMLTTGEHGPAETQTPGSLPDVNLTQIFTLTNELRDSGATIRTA
Put plainly: SPR BIAcore B4000, Ab captured on anti-mouse IgG, 25 C.

Assay [17] has as its target T9, Tim3-ECD-His-Biotin (human, UniProt Q8TDQ0 22-202, biotinylated with BirA Ligase, site not stated).
T9 construct: also called human Tim3 (ELISA); Biochem Human
Put plainly: ELISA on human Tim3.

Assay [18] concerns the target T10, full-length human Tim3 on cells (CHO-K1 stably transfected with plasmid 15312_hTIM3-fl_pUC_Neo) (human, UniProt Q8TDQ0 22-301).
T10 construct: Also used as the target of the MLR read-outs (native TIM-3); also called CHO-Tim3; CHO-TIM3
Put plainly: cellular ELISA on CHO-TIM3.

The target in assay [19] is T6, monomeric human Tim3-ECD. Put plainly: SPR, Ab captured, monomer Tim3.
In assay [20] the target is T11, huFc fused dimeric human Tim3-ECD (human, UniProt Q8TDQ0 22-202).
T11 construct: also called huTim3Fc; Fc-tagged human Tim3-ECD dimer
Put plainly: SPR, Ab captured, dimer Tim3 (avidity).

For assay [21], the target named is T9, Tim3-ECD-His-Biotin. Put plainly: ELISA on streptavidin-captured Tim3-ECD-His-Biotin.
In assay [22] the target is T10, full-length human Tim3 on cells (CHO-K1 …). Put plainly: cell ELISA on CHO-K1 cells with full-length human Tim3.
For assay [23], the target named is T6, monomeric human Tim3-ECD. Put plainly: SPR BIAcore B4000, Ab captured on anti-mouse IgG, 25 C.
The target in assay [24] is T9, Tim3-ECD-His-Biotin. Put plainly: ELISA on human Tim3 (values in relation to the samples max value).
Assay [25] deals with T10, full-length human Tim3 on cells (CHO-K1 …). Put plainly: cellular ELISA on CHO-TIM3 (values in relation to the samples max value).
Assay [26] deals with T11, huFc fused dimeric human Tim3-ECD. Put plainly: SPR BIAcore B4000, Ab captured on anti-mouse IgG, 25 C, dimeric antigen (avidity).

B1: chimeric PD1-0103 (antibody, human IgG1, V domains shown)
VH: EVILVESGGGLVKPGGSLKLSCAASGFSFSSYTMSWVRQTPEKRLDWVATISGGGRDIYYPDSVKGRFTISRDNAKNTLYLEMSSLMSEDTALYYCVLLTGRVYFALDSWGQGTSVTVSS
VL: KIVLTQSPASLPVSLGQRATISCRASESVDTSDNSFIHWYQQRPGQSPKLLIYRSSTLESGVPARFSGSGSRTDFTLTIDPVEADDVATYYCQQNYDVPWTFGGGTKLEIK
For the molecule B1, the results for the “EC50 of IFN-gamma secretion in MLR, donors D2 + D6” value in [1], in assay [2] and in assay [3] were 7.7 nM, 6.5 nM and 6 nM, respectively. Also, the “EC50 of IFN-gamma secretion in MLR, donors D1 + D3” value in assay [4] worked out at 5.7 nM. Further, the “EC50 of IFN-gamma secretion in MLR, donors D2 + D4” value in assay [4] worked out at 5.7 nM. Further, the EC50 (as a rule, the concentration giving half of the maximal effect) is 0.2 nM in [5] and 0.12 nM in [6]. Also, the binding result is given as “no binding” in assay [7] and “no binding (tested: about 20 nM)” in [9]. The Kd is 0.8 nM with human PD1-ECD [8], 2 nM with human PD1-ECD [10] and 0.8 nM with human PD1-ECD [12]. Besides, the koff (in general, the rate constant with which the complex falls apart) with human PD1-ECD [8] turned out to be 0.000307 s⁻¹. Also, the kon (as a rule, a measure of how fast the partners come together) with human PD1-ECD [8] stood at 386000 M⁻¹ s⁻¹. In addition, the IC50 (in general, the point on the concentration scale where inhibition reaches its midpoint) in assay [11] came to 1.35 nM.

B2: 1+1 PD1TIM3_0168 (based on chimeric PD1-0103 / Tim3-0018) (bispecific antibody, human IgG1, kappa, L234A L235A)
heavy 1: not shown
heavy 2: QVTLKESGPGILQPSQTLSLTCSFSGFSLSTSGMSVGWIRQPSGKGLEWLAHIWLNDDVFFNPALKRRLTISKDTSNNQVFLQIASVVTADTATYYCVRANGYLYALDYWGQGISVTVSSASTKGPSVFPLAPSSKSTSGGTAALGCLVEDYFPEPVTVSWNSGALTSGVHTFPAVLQSSGLYSLSSVVTVPSSSLGTQTYICNVNHKPSNTKVDEKVEPKSCDKTHTCPPCPAPEAAGGPSVFLFPPKPKDTLMISRTPEVTCVVVDVSHEDPEVKFNWYVDGVEVHNAKTKPREEQYNSTYRVVSVLTVLHQDWLNGKEYKCKVSNKALGAPIEKTISKAKGQPREPQVCTLPPSRDELTKNQVSLSCAVKGFYPSDIAVEWESNGQPENNYKTTPPVLDSDGSFFLVSKLTVDKSRWQQGNVFSCSVMHEALHNRFTQKSLSLSPGK
light 1: EVILVESGGGLVKPGGSLKLSCAASGFSFSSYTMSWVRQTPEKRLDWVATISGGGRDIYYPDSVKGRFTISRDNAKNTLYLEMSSLMSEDTALYYCVLLTGRVYFALDSWGQGTSVTVSSASVAAPSVFIFPPSDEQLKSGTASVVCLLNNFYPREAKVQWKVDNALQSGNSQESVTEQDSKDSTYSLSSTLTLSKADYEKHKVYACEVTHQGLSSPVTKSFNRGEC
light 2: QIVLTQSPAIMSASPGQKVTITCSASSSVNYTQWYQQKLGSSPKLWIYDAFKLAPGVPARFSGSGTGTSYSLTISSMEAEDAASYFCHQWSSYPWTFGGGTKLEIKRTVAAPSVFIFPPSDRKLKSGTASVVCLLNNFYPREAKVQWKVDNALQSGNSQESVTEQDSKDSTYSLSSTLTLSKADYEKHKVYACEVTHQGLSSPVTKSFNRGEC
notes: 1+1 CrossMAb Vh-VL: HC1/LC1 form the crossed PD1 arm, HC2/LC2 the TIM3 arm; knobs into holes
As to B2, the “EC50 of IFN-gamma secretion in MLR, donors D2 + D6” value in assay [1] turned out to be 4.3 nM. Further, the EC50 in assay [6] turned out to be 0.11 nM; in assay [7], 0.41 nM. The Kd was 1.2 nM in the assay with human PD1-ECD [13] and 10.3 nM in the assay with monomeric human Tim3-ECD [14]. Also, the 50% effective concentration (EC50 (read off the curve)) in assay [15] and in assay [16] was roughly 0.7 nM throughout.

B3: Tim3_0022 (antibody, V domains shown)
VH: EVQLQESGPSLVKPSQTLSLTCSVTGDSIASAYWNWIRKFPGNKLEYMGYINYSGSTYYNPSLKSRISITRDTSQNQYYLQLNSVTTEDTATYYCVTGDYFDYWGRGTTLTVSS
VL: DIQMTQSPSSLSAYLGGKVTITCKARQDVRKNIGWYQHKPGKGPRLLIWYTSTLQSGIPSRFSGSGSGRDYSFNINNLEPEDIATYYCLQYDNLPFTFGTGTKLEIR
On to B3, for which the Kd with monomeric cyno Tim3-ECD was determined as 28.4 nM.

B4: Tim3_0016 variant (0018) (antibody, V domains shown)
VH: QVTLKESGPGILQPSQTLSLTCSFSGFSLSTSGMSVGWIRQPSGKGLEWLAHIWLNDDVFFNPALKRRLTISKDTSNNQVFLQIASVVTADTATYYCVRANGYLYALDYWGQGISVTVSS
VL: QIVLTQSPAIMSASPGQKVTITCSASSSVNYTQWYQQKLGSSPKLWIYDAFKLAPGVPARFSGSGTGTSYSLTISSMEAEDAASYFCHQWSSYPWTFGGGTKLEIK
notes: Mouse monoclonal antibody; also called Tim3_0018; Tim3 0018
As for B4, the Inflexion point in the assay with Tim3-ECD-His-Biotin [17] turned out to be 15.3 ng/mL; in assay [18], 29.4 ng/mL. Further, the Kd with monomeric human Tim3-ECD [19] was determined as 3.4 nM; in assay [20], 1.1 nM; with monomeric human Tim3-ECD [23] it was 3.4 nM; in assay [26] it was 1.11 nM. The EC50 with Tim3-ECD-His-Biotin [21] was 0.56 nM and 0.094 µg/mL; in [22], 0.52 nM and 0.087 µg/mL; in the assay with Tim3-ECD-His-Biotin [24], 0.0151 mg/L; in assay [25] it was 0.0264 mg/L.
